Experimental data taken from patent US20230193255.

Assays:
[1] = molecular target: Variant TEV cleavage site ENLFFQS
[2] = molecular target: Variant TEV cleavage site ENVYFQS
[3] = molecular target: TEV cleavage site ENLYFQS

B1: TEV protease S219V mutant (protein)
chain: ESLFKGPRDYNPISSTICHLTNESDGHTTSLYGIGFGPFIITNKHLFRRNNGTLLVQSLHGVFKVKNTTTLQQHLIDGRDMIIIRMPKDFPPFPQKLKFREPQREERICLVTTNFQTKSMSSMVSDTSCTFPSSDGIFWKHWIQTKDGQCGSPLVSTRDGFIVGIHSASNFTNTNNYFTSVPKNFMELLTNQEAQQWVSGWRLNADSVLWGGHKVFMVKPEEPFQPVKEATQLMN
[1]
  efficiency of cleavage by TEV at the TCS: found to exhibit 10% efficiency
[2]
  efficiency of cleavage by TEV at the TCS: found to exhibit 1% efficiency
[3]
  efficiency of cleavage by TEV at the TCS: considered to be 100% efficient
